Square brackets hold non-standard residues; d marks the D form. Ends that are not written are not given here. * marks the point of attachment. Benzoyl(3-OMe) = COc1cccc(C(=O)*)c1; Benzoyl(4-OMe) = COc1ccc(C(=O)*)cc1
Experiments:
[1] = target: MC receptor endogenous to Xenopus laevis melanophores (Xenopus laevis); test: cell-based or functional assay
[2] = target: MC receptor endogenous to Xenopus laevis melanophores (Xenopus laevis); test: Schild plot regression analysis, frog melanophores (functional)
[3] = target: MC receptor endogenous to Xenopus laevis melanophores (Xenopus laevis); test: Schild regression; suppression of α-MSH-induced pigment dispersion in Xenopus melanophores (functional)
[4] = target: MC receptor endogenous to Xenopus laevis melanophores (Xenopus laevis); test: Schild plot; antagonism of α-MSH pigment dispersion in Xenopus melanophores (functional)

B1: SQW-12 (peptide)
peptide: {Benzoyl(3-OMe)}-RRIRPAL-NH2
SMILES: CC[C@H](C)[C@H](NC(=O)[C@H](CCCNC(=N)N)NC(=O)[C@H](CCCNC(=N)N)NC(=O)c1cccc(OC)c1)C(=O)N[C@@H](CCCNC(=N)N)C(=O)N1CCC[C@H]1C(=O)N[C@@H](C)C(=O)N[C@@H](CC(C)C)C(N)=O
MCR IC50 nM: antagonism of α-MSH (600 pM) darkening of frog melanophores [1]: 1600 nM

B2: SQW-13 (peptide)
peptide: {Benzoyl(3-OMe)}-RRIRPKA-NH2
SMILES: CC[C@H](C)[C@H](NC(=O)[C@H](CCCNC(=N)N)NC(=O)[C@H](CCCNC(=N)N)NC(=O)c1cccc(OC)c1)C(=O)N[C@@H](CCCNC(=N)N)C(=O)N1CCC[C@H]1C(=O)N[C@@H](CCCCN)C(=O)N[C@@H](C)C(N)=O
MCR IC50 nM: antagonism of α-MSH (600 pM) darkening of frog melanophores [1]: 62 nM

B3: human agouti-related protein fragment ARP-(83-132)-NH2 (peptide)
peptide: SSRRCVRLHESCLGQQVPCCDPCATCYCRFFNAFCYCRKLGTAMNPCSRT-NH2
modifications: disulfide (positions not given here); not fully specified (bridges); also: five disulfides among the 10 Cys, arrangement undetermined
EC50 of α-MSH in frog melanophores in the presence of 30 nM ARP fragment [1]: 19 nM
Ki [2]: 0.21 nM
Ki [3]: 0.7 nM

{Benzoyl(4-OMe)}-RRIRPK[dL]-NH2 [p-anisoyl-[D-Leu^12] dynorphin A(6-12)-NH2]
MCR IC50 nM: antagonism of α-MSH (600 pM) darkening of frog melanophores [1]: 29 nM
Ki [4]: 27 nM
pKi [4]: 7.57

Source: patent US20020004485A1
